# Publication PMC3763469 (Molecular cell, 2011)
# T1: S. solfataricus ESCRT-III wH domain (His6-SSO0910, residues 210-259) (S. solfataricus, UniProt Q97ZJ6 210-259)
# T1 chain (looked up): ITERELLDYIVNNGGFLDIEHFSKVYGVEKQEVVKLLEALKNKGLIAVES
# T2: GST fused to full length ESCRT-III (Saci_1373) (S. acidocaldarius, UniProt Q4J924 1-261)
# T2 sequence (looked up): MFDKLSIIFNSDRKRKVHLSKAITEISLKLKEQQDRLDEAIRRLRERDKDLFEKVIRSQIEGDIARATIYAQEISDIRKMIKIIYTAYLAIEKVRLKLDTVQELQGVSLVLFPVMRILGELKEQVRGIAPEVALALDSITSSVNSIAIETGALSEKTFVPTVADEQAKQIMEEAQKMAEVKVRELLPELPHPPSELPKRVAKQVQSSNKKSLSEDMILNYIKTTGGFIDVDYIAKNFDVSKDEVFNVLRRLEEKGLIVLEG
# T3: full length ESCRT-III (Saci_1373), purified recombinant (S. acidocaldarius, UniProt Q4J924 1-261)
# T3 sequence (looked up): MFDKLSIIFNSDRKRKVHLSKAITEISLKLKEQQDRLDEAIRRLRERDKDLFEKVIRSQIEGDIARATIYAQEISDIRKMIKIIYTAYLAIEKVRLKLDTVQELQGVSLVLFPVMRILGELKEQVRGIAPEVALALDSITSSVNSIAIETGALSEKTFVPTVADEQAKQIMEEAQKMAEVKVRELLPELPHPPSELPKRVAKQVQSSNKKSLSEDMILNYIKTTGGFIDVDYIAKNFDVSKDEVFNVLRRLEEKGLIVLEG
# B1: S. solfataricus CdvA E3B peptide (SSO0911, residues 251-265) (peptide, UniProt Q97ZJ5 251-265, looked up)
# peptide: SEIPLPIPVKVINTL
# B2: CdvA (Saci_1374) residues 69-238 (domain or fragment, S. acidocaldarius, UniProt Q4J923 69-238, looked up)
# chain: DWKTDSLKVLGQMEKIRKRQRALEELYSRQEIPKSTYEDMKRKLDSELLKIRDEHSRLKGRLKDRLNSIEDQVAQIDRAMIALKINYISGEIPELAYKNSMEILRLSRDSYALERDDIKKTLDKLDGLDKEVIELKPSASLNTSTEQSNKNEGNKSEVSVPIPVRVINTL
# Experiments:
# [1] = molecular target: FlAsH-Saci_1373 (ESCRT-III wH domain, residues 194-261) (S. acidocaldarius) (UniProt Q4J924); assay: fluorescence polarisation
# [2] = molecular target: T1, S. solfataricus ESCRT-III wH domain …; assay: crystal structure
# [3] = molecular target: T2, GST fused to full length ESCRT-III …; assay: pull-down
# [4] = molecular target: T3, full length ESCRT-III (Saci_1373), …; assay: co-sedimentation
molecule,measurement,setting,value
GST-tagged CdvA residues 208-238 (from UniProt Q4J923 208-238) (domain or fragment),Kd,[1],6 µM
B1,binding result,[2],binds
B2,binding result,[3],binds
same,binding result,[4],binds
